Here are results for 3 substances from paper PMC3946434.

Assay in all cases: AUC
The target in assay [1] is HIV-1 capsid C-terminal domain construct CA144-231 (HIV-1) (UniProt P12493).
In assay [2] the target is HIV-1 capsid C-terminal domain construct CA146-231 (HIV-1) (UniProt P12493).
Assay [3] shares this target. This is another data set of the same source.
Assay [4] deals with wild-type, full length HIV-1 capsid protein (CAFL, residues 1-231) (HIV-1) (UniProt P12493).

Read-outs that look alike come from different tables or passages of the source.

By Kd is commonly meant the concentration at which binding is half-saturated. Read a high Kd as lower affinity. In assay [1], “HIV-1 capsid C-terminal domain construct CA144-231 (from UniProt P12493 276-363) (domain or fragment)” returned a Kd of 16 µM.
As for “HIV-1 capsid C-terminal domain construct CA146-231 (from UniProt P12493 278-363) (domain or fragment)”, the Kd in assay [2] was 23 µM; in assay [3], 24 µM.
In turn, “wild-type, full length HIV-1 capsid protein (CAFL, residues 1-231) (from UniProt P12493) (natural protein)” came in with a dissociation constant (Kd) in assay [4] of 20 µM.
